Experimental data from publication PMC6092398, “Revealing circadian mechanisms of integration and resilience by visualizing clock proteins working in real time” (Nature Communications, 2018).

Experiments:
KaiA [1] = target: KaiA (UniProt Q79PF6); assay: HS-AFM single-molecule dwell time
KaiA [2] = target: KaiA (UniProt Q79PF6); assay: HS-AFM single-molecule dwell time; remark: listed apart in the source
[3] = target: the molecule itself; assay: high-speed atomic force microscopy (HS-AFM); KaiC^WT alone immobilised on bare mica (N-terminal side seen), images compared with an AFM image simulated from the crystal structure
KaiC-AA (mimic of S/T) = target: T1, KaiC-AA (mimic of S/T) (S. elongatus, UniProt Q79PF4 1-519, KaiC-AA (S431 to A) | KaiC-AA (T432 to A)); assay: high-speed atomic force microscopy (HS-AFM); as Fig. 3 but with 1 mM ATP in the observation buffer (Supplementary Fig. 4); KaiC phospho-mimics on AP-mica, KaiA in solution; conditions: both partners purified
T1 construct: KaiC of Synechococcus elongatus with the two phosphorylation sites S431 and T432 changed to A and A; the two substitutions are read from these; source: E. coli BL21 or DH5α, pGEX-based construct, purified (glutathione-agarose, HRV3C cleavage on the column, Q Sepharose); not shown: GST, N-terminal, cleaved
T1 sequence: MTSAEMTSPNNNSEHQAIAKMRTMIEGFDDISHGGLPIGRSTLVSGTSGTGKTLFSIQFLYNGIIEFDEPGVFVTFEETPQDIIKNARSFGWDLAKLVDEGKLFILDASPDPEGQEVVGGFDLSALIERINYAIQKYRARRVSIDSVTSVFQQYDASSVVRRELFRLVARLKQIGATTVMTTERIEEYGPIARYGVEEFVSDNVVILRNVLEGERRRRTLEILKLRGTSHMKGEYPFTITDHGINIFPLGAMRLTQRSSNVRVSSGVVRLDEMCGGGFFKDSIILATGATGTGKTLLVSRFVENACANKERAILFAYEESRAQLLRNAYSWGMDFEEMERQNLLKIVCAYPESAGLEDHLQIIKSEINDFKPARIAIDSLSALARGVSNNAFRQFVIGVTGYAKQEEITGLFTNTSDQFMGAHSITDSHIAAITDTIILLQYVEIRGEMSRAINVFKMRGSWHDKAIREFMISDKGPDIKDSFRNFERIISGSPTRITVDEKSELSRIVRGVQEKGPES

KaiC-AE (mimic of S/pT) [4] = target: T2, KaiC-AE (mimic of S/pT) (S. elongatus, UniProt Q79PF4 1-519, KaiC-AE (S431 to A) | KaiC-AE (T432 to E)); assay: as above; conditions: both partners purified
T2 construct: KaiC of Synechococcus elongatus with the two phosphorylation sites S431 and T432 changed to A and E; the two substitutions are read from these; source: E. coli BL21 or DH5α, pGEX-based construct, purified (glutathione-agarose, HRV3C cleavage on the column, Q Sepharose); not shown: GST, N-terminal, cleaved
T2 sequence: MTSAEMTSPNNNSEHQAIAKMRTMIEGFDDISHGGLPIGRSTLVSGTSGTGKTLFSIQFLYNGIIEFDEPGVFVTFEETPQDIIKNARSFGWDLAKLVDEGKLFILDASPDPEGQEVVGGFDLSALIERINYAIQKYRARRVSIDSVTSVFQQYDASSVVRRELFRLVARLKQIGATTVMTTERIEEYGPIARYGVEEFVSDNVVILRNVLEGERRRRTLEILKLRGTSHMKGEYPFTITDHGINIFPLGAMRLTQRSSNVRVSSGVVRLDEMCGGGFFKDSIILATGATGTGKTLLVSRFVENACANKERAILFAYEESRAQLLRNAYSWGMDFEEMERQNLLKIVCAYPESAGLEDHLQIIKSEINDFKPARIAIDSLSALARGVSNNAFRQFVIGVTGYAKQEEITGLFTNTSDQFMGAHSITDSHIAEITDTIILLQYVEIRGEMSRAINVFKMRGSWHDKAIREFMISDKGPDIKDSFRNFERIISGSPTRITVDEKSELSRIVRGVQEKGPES

KaiC-DE (mimic of pS/pT) [5] = target: T3, KaiC-DE (mimic of pS/pT) (S. elongatus, UniProt Q79PF4 1-519, KaiC-DE (S431 to D) | KaiC-DE (T432 to E)); assay: as above; conditions: both partners purified
T3 construct: KaiC of Synechococcus elongatus with the two phosphorylation sites S431 and T432 changed to D and E; the two substitutions are read from these; source: E. coli BL21 or DH5α, pGEX-based construct, purified (glutathione-agarose, HRV3C cleavage on the column, Q Sepharose); not shown: GST, N-terminal, cleaved
T3 sequence: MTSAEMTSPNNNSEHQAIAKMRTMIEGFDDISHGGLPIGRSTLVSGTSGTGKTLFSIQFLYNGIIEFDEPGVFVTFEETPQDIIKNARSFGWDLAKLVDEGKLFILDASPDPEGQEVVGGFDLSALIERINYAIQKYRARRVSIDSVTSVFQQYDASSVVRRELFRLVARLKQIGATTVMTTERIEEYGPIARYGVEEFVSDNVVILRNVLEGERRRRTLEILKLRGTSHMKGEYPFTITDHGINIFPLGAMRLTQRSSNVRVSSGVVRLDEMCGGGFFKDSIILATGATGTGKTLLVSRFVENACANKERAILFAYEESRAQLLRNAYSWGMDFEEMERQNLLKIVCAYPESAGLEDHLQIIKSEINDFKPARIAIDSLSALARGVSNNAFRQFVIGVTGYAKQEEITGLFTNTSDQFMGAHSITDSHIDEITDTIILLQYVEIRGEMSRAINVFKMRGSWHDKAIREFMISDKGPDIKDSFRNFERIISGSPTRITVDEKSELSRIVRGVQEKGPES

KaiC-AE (mimic of S/pT) [6] = target: T2, KaiC-AE (mimic of S/pT); assay: high-speed atomic force microscopy (HS-AFM); KaiC phospho-mimics on AP-mica (CII end up), 1 μM KaiA in solution, no ATP; dwell time of the KaiA-bound state from images at 10 fps, fitted to a first order model; 20 mM Tris-HCl pH 8.0, 5 mM MgCl2, 25-28 °C; conditions: both partners purified
KaiC-DE (mimic of pS/pT) [7] = target: T3, KaiC-DE (mimic of pS/pT); assay: as above; conditions: both partners purified
KaiC-DA (mimic of pS/T) = target: T4, KaiC-DA (mimic of pS/T) (S. elongatus, UniProt Q79PF4 1-519, KaiC-DA (S431 to D) | KaiC-DA (T432 to A)); assay: as above; conditions: both partners purified
T4 construct: KaiC of Synechococcus elongatus with the two phosphorylation sites S431 and T432 changed to D and A; the two substitutions are read from these; source: E. coli BL21 or DH5α, pGEX-based construct, purified (glutathione-agarose, HRV3C cleavage on the column, Q Sepharose); not shown: GST, N-terminal, cleaved
T4 sequence: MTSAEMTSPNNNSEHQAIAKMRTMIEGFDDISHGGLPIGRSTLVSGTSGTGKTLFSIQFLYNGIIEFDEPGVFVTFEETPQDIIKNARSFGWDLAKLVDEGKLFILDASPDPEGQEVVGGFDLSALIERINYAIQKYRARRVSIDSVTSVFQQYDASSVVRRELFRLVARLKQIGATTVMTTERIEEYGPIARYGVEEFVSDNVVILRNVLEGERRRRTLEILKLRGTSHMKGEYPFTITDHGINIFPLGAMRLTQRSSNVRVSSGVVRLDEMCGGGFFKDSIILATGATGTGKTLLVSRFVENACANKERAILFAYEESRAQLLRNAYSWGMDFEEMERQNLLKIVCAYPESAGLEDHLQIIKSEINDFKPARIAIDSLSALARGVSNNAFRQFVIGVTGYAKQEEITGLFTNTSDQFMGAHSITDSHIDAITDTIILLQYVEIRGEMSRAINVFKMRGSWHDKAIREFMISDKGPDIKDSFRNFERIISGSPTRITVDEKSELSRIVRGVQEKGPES

[8] = reference: KaiC-AA (S431A/T432A), sites S431,T432
[9] = reference: KaiC-AE (S431A/T432E), sites S431
[10] = reference: KaiC-AA (S431A/T432A), sites S431
[11] = reference: KaiC-AA (S431A/T432A), sites T432

Molecule: KaiC (from UniProt Q79PF4) hyperphosphorylated KaiCWT (~81% phosphorylated)
- other: bound-state lifetime τbound (KaiA [1]; reference: hypo-phosphorylated KaiCWT (~27% phosphorylated), sites S431,T432): weaker; reference 1.12 ± 0.03

Molecule: KaiC (from UniProt Q79PF4) KaiC-DE (S431D/T432E)
- other: bound-state lifetime τbound (KaiA [2]; [8]): 0.31 s
- other: bound-state lifetime τbound (KaiA [2]; [9]): weaker; reference 0.95 ± 0.04
- other: bound-state lifetime τbound (KaiA [2]; reference: KaiC-DA (S431D/T432A), sites T432): weaker; reference 0.43 ± 0.01
- other: bound-state lifetime τbound (KaiA [1]; [8]): 0.26 s
- other: bound-state lifetime τbound (KaiA [1]; [9]): weaker; reference 1.00 ± 0.15

Molecule: KaiC (from UniProt Q79PF4) KaiCWT from peak phosphorylation phase (24 h)
- other: bound-state lifetime τbound (KaiA [1]; reference: KaiCWT from trough phosphorylation phase (15 h), sites S431,T432): weaker; reference 0.77 ± 0.05

Molecule: KaiC (from UniProt Q79PF4) KaiC-DA (S431D/T432A)
- other: bound-state lifetime τbound (KaiA [2]; [10]): 0.43 s
- other: bound-state lifetime τbound (KaiA [1]; [10]): 0.43 s

Molecule: KaiC (from UniProt Q79PF4) KaiC-AE (S431A/T432E)
- other: bound-state lifetime τbound (KaiA [2]; [11]): 0.95 s
- other: bound-state lifetime τbound (KaiA [1]; [11]): 1 s

B1: native wild-type KaiC hexamer (KaiC^WT) (natural protein, S. elongatus)
chain: MTSAEMTSPNNNSEHQAIAKMRTMIEGFDDISHGGLPIGRSTLVSGTSGTGKTLFSIQFLYNGIIEFDEPGVFVTFEETPQDIIKNARSFGWDLAKLVDEGKLFILDASPDPEGQEVVGGFDLSALIERINYAIQKYRARRVSIDSVTSVFQQYDASSVVRRELFRLVARLKQIGATTVMTTERIEEYGPIARYGVEEFVSDNVVILRNVLEGERRRRTLEILKLRGTSHMKGEYPFTITDHGINIFPLGAMRLTQRSSNVRVSSGVVRLDEMCGGGFFKDSIILATGATGTGKTLLVSRFVENACANKERAILFAYEESRAQLLRNAYSWGMDFEEMERQNLLKIVCAYPESAGLEDHLQIIKSEINDFKPARIAIDSLSALARGVSNNAFRQFVIGVTGYAKQEEITGLFTNTSDQFMGAHSITDSHISTITDTIILLQYVEIRGEMSRAINVFKMRGSWHDKAIREFMISDKGPDIKDSFRNFERIISGSPTRITVDEKSELSRIVRGVQEKGPES
notes: circadian clock protein KaiC of Synechococcus elongatus, native (unmutated); also called native KaiC; C6; source: E. coli BL21 or DH5α, pGEX-based construct, purified (glutathione-agarose, HRV3C cleavage on the column, Q Sepharose; 5 mM MgCl2 and 1 mM ATP throughout); not shown: GST, N-terminal, cleaved
- stoichiometry N [3]: 6

B2: KaiA (natural protein, S. elongatus, UniProt Q79PF6 1-284, looked up)
chain: MLSQIAICIWVESTAILQDCQRALSADRYQLQVCESGEMLLEYAQTHRDQIDCLILVAANPSFRAVVQQLCFEGVVVPAIVVGDRDSEDPDEPAKEQLYHSAELHLGIHQLEQLPYQVDAALAEFLRLAPVETMADHIMLMGANHDPELSSQQRDLAQRLQERLGYLGVYYKRDPDRFLRNLPAYESQKLHQAMQTSYREIVLSYFSPNSNLNQSIDNFVNMAFFADVPVTKVVEIHMELMDEFAKKLRVEGRSEDILLDYRLTLIDVIAHLCEMYRRSIPRET
notes: circadian clock protein KaiA of Synechococcus elongatus, native (unmutated); also called native KaiA; KaiA dimer; source: E. coli BL21 or DH5α, pGEX-based construct, purified (glutathione-agarose, HRV3C cleavage on the column, Q Sepharose); not shown: GST, N-terminal, cleaved
- binding result (KaiC-AA (mimic of S/T)): binds
- τ_(bound) (dwell time of the bound state) (KaiC-AE (mimic of S/pT) [4]): 0.95 s
- τ_(bound) (dwell time of the bound state) (KaiC-DE (mimic of pS/pT) [5]): 0.31 s
- τ_(bound) (dwell time of the bound state) (KaiC-AE (mimic of S/pT) [6]): 1 s
- τ_(bound) (dwell time of the bound state) (KaiC-DE (mimic of pS/pT) [7]): 0.26 s
- τ_(bound) (dwell time of the bound state) (KaiC-DA (mimic of pS/T)): 0.43 s
